{"source": "patent US20230174659A1", "about": "(GENERAL HOSPITAL, published 2023)", "binders": {"B1": {"name": "agonistic TNFR2 antibody TNFRAG1 (antibody, V domains shown)", "VH": "EVQLQQFGAELVKPGASVKISCKASGYTFTDYNIDWVKQSHGKSLEWIGDINPNYDSTSYSQKFRGKATLTVDKSSSTAYMELRSLTSEDTAVYYCARGNSWYFDVWGAGTTVTVSS", "VL": "QIVLTQSPALMSASPGEKVTMTCSASSSVRYMYWYQQKPRSSPKPWIYLTSNLASGVPARFSGSGSGTSYSLTISSMEAEDAATYYCQQWSSNPLTFGAGTKLELK", "notes": "It was detected with secondary antibodies against rodent IgG; also called monoclonal TNFR2 antibody TNFRAG1; TNFR2 agonist antibody"}}, "key": {"[1]": {"target": "T1, Amino acid residues 42-61 of human TNFR2 (human)", "T1 peptide": "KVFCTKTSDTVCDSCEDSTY", "assay": "ELISA on TNFR2 peptide, antibody alone", "experimental": "(§1) ELISA was also used to determine linear epitopes present on the extracellular surface of TNFR2. Linear peptides corresponding to various regions within the TNFR2 primary sequence were purchased from GenScript (Piscataway, NJ), diluted in coating buffer and placed on Immulon 4HBX Flat Bottom Microtiter Plates (Thermo Scientific) at a concentration of 1 µg/well. Primary TNFR2 agonistic antibodies (0.1 µg/well) were incubated with substrates. Secondary antibodies against rodent IgG were used to detect the primary antibodies. Absorbance was measured using the SPECTRAMAX^{®} 190 Absorbance Plate Reader and analyzed with SoftMax Pro 6.3 (Molecular Devices)."}, "[2]": {"target": "T2, Amino acid residues 170-189 of human TNFR2 (human)", "T2 peptide": "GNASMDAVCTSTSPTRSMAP", "assay": "ELISA on TNFR2 peptide, antibody alone", "experimental": "as §1"}, "[3]": {"target": "T3, Amino acid residues 17-36 of human TNFR2 (human)", "T3 peptide": "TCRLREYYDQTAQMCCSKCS", "assay": "ELISA on TNFR2 peptide, antibody alone", "experimental": "as §1"}, "[4]": {"target": "T4, Amino acid residues 50-69 of human TNFR2 (human)", "T4 peptide": "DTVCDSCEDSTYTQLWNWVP", "assay": "ELISA on TNFR2 peptide, antibody alone", "experimental": "as §1"}, "[5]": {"target": "T5, Amino acid residues 9-28 of human TNFR2 (human)", "T5 peptide": "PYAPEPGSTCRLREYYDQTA", "assay": "ELISA on TNFR2 peptide, antibody alone", "experimental": "as §1"}, "[6]": {"target": "T6, Amino acid residues 1-20 of human TNFR2 (human)", "T6 peptide": "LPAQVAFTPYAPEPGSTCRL", "assay": "ELISA on plate-coated linear peptide S04062", "experimental": "as §1"}, "[7]": {"target": "T7, Amino acid residues 98-117 of human TNFR2 (human)", "T7 sequence (peptide)": "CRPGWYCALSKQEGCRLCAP", "assay": "ELISA on plate-coated linear peptide S04072; Affinity cell of this row is '1+'"}, "[8]": {"target": "T8, Amino acid residues 106-125 of human TNFR2 (human)", "T8 sequence (peptide)": "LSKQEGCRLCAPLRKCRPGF", "assay": "ELISA on TNFR2 peptide, antibody alone; Affinity cell of this row is '-'"}, "[9]": {"target": "T9, Amino acid residues 66-85 of human TNFR2 (human)", "T9 sequence (peptide)": "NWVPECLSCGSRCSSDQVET", "assay": "ELISA on TNFR2 peptide, antibody alone; Affinity cell of this row is '-'"}, "[10]": {"target": "T10, Amino acid residues 82-101 of human TNFR2 (human)", "T10 sequence (peptide)": "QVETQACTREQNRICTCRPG", "assay": "ELISA on TNFR2 peptide, antibody alone; Affinity cell of this row is '-'"}, "[11]": {"target": "T11, Amino acid residues 74-93 of human TNFR2 (human)", "T11 sequence (peptide)": "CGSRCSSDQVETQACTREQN", "assay": "ELISA on TNFR2 peptide, antibody alone; Affinity cell of this row is '-'"}, "[12]": {"target": "T12, Amino acid residues 26-45 of human TNFR2 (human)", "T12 sequence (peptide)": "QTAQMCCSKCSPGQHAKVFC", "assay": "ELISA on plate-coated linear peptide S03933"}, "[13]": {"target": "T8, Amino acid residues 106-125 of human TNFR2 (human)", "assay": "ELISA on plate-coated linear peptide S04073"}, "[14]": {"target": "T13, Amino acid residues 58-77 of human TNFR2 (human)", "T13 peptide": "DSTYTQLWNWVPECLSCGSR", "assay": "ELISA, immobilised TNFR2 peptide fragments, TNFRAG1 as primary antibody", "experimental": "(§2) The binding of antibody to each of the synthesized peptides was tested in an ELISA format. Surface-immobilized peptide arrays were incubated with primary antibody solution (overnight at 4° C.). After washing, the peptide arrays were incubated with a 1/1000 dilution of an appropriate antibody peroxidase conjugate (SBA) for one hour at 25° C. After washing, the peroxidase substrate 2,2′-azino-di-3- ethylbenzthiazoline sulfonate (ABTS) and 2 µl/ml of 3 percent H₂O₂ were added. After one hour, the color development was measured. The color development was quantified with a charge coupled device (CCD) - camera and an image processing system. The values obtained from the CCD camera range from 0 to 3000 mAU, similar to a standard 96-well plate ELISA-reader.\n(§3) Affinity is reported qualitatively using a categorical four-point scale, such that an affinity score of “0” denotes lowest affinity and an affinity score of “4” denotes highest affinity."}, "[15]": {"target": "T1, Amino acid residues 42-61 of human TNFR2", "assay": "ELISA, immobilised TNFR2 peptide fragments, TNFRAG1 as primary antibody", "experimental": "as §2, §3"}, "[16]": {"target": "T2, Amino acid residues 170-189 of human …", "assay": "ELISA, immobilised TNFR2 peptide fragments, TNFRAG1 as primary antibody", "experimental": "as §2, §3"}, "[17]": {"target": "T3, Amino acid residues 17-36 of human TNFR2", "assay": "ELISA, immobilised TNFR2 peptide fragments, TNFRAG1 as primary antibody", "experimental": "as §2, §3"}, "[18]": {"target": "T6, Amino acid residues 1-20 of human TNFR2", "assay": "ELISA, immobilised TNFR2 peptide fragments, TNFRAG1 as primary antibody", "experimental": "as §2, §3"}, "[19]": {"target": "T14, Amino acid residues 138-157 of human TNFR2 (human)", "T14 peptide": "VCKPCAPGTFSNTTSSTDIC", "assay": "ELISA, immobilised TNFR2 peptide fragments, TNFRAG1 as primary antibody", "experimental": "as §2, §3"}, "[20]": {"target": "T4, Amino acid residues 50-69 of human TNFR2", "assay": "ELISA, immobilised TNFR2 peptide fragments, TNFRAG1 as primary antibody", "experimental": "as §2, §3"}, "[21]": {"target": "T15, Amino acid residues 154-174 of human TNFR2 (human)", "T15 construct": "The printed range 154-174 spans 21 residues, but the printed peptide has 20", "T15 peptide": "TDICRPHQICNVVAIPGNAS", "assay": "ELISA, immobilised TNFR2 peptide fragments, TNFRAG1 as primary antibody", "experimental": "as §2, §3"}, "[22]": {"target": "T16, Amino acid residues 162-181 of human TNFR2 (human)", "T16 peptide": "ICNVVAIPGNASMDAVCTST", "assay": "ELISA, immobilised TNFR2 peptide fragments, TNFRAG1 as primary antibody", "experimental": "as §2, §3"}, "[23]": {"target": "T17, Amino acid residues 90-109 of human TNFR2 (human)", "T17 peptide": "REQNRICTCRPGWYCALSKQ", "assay": "ELISA, immobilised TNFR2 peptide fragments, TNFRAG1 as primary antibody", "experimental": "as §2, §3"}, "[24]": {"target": "T18, Amino acid residues 114-133 of human TNFR2 (human)", "T18 peptide": "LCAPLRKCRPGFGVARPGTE", "assay": "ELISA, immobilised TNFR2 peptide fragments, TNFRAG1 as primary antibody", "experimental": "as §2, §3"}, "[25]": {"target": "T5, Amino acid residues 9-28 of human TNFR2", "assay": "ELISA, immobilised TNFR2 peptide fragments, TNFRAG1 as primary antibody", "experimental": "as §2, §3"}, "[26]": {"target": "T19, Amino acid residues 130-149 of human TNFR2 (human)", "T19 peptide": "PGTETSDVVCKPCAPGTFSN", "assay": "ELISA, immobilised TNFR2 peptide fragments, TNFRAG1 as primary antibody", "experimental": "as §2, §3"}, "[27]": {"target": "T20, Amino acid residues 146-165 of human TNFR2 (human)", "T20 peptide": "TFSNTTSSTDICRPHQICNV", "assay": "ELISA, immobilised TNFR2 peptide fragments, TNFRAG1 as primary antibody", "experimental": "as §2, §3"}, "[28]": {"target": "T21, Amino acid residues 122-141 of human TNFR2 (human)", "T21 peptide": "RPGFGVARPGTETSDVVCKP", "assay": "ELISA, immobilised TNFR2 peptide fragments, TNFRAG1 as primary antibody", "experimental": "as §2, §3"}}}
{"binder": "B1", "values": [{"measurement": "binding result", "setting": "[1]", "result": "no binding"}, {"measurement": "binding result", "setting": "[2]", "result": "no binding"}, {"measurement": "binding result", "setting": "[3]", "result": "no binding"}, {"measurement": "binding result", "setting": "[4]", "result": "no binding"}, {"measurement": "binding result", "setting": "[5]", "result": "no binding"}, {"measurement": "binding result", "setting": "[6]", "result": "no binding"}, {"measurement": "Reading", "setting": "[7]", "result": 0}, {"measurement": "Reading", "setting": "[8]", "result": 2}, {"measurement": "Reading", "setting": "[9]", "result": 2}, {"measurement": "Reading", "setting": "[10]", "result": 2}, {"measurement": "Reading", "setting": "[11]", "result": 2}, {"measurement": "Affinity", "setting": "[12]", "result": 1}, {"measurement": "Affinity", "setting": "[13]", "result": 2}, {"measurement": "Affinity Score", "setting": "[14]", "result": "0 affinity score (0 lowest to 4 highest)"}, {"measurement": "Affinity Score", "setting": "[15]", "result": "0 affinity score (0 lowest to 4 highest)"}, {"measurement": "Affinity Score", "setting": "[16]", "result": "0 affinity score (0 lowest to 4 highest)"}, {"measurement": "Affinity Score", "setting": "[17]", "result": "0 affinity score (0 lowest to 4 highest)"}, {"measurement": "Affinity Score", "setting": "[18]", "result": "0 affinity score (0 lowest to 4 highest)"}, {"measurement": "Affinity Score", "setting": "[19]", "result": "0 affinity score (0 lowest to 4 highest)"}, {"measurement": "Affinity Score", "setting": "[20]", "result": "0 affinity score (0 lowest to 4 highest)"}, {"measurement": "Affinity Score", "setting": "[21]", "result": "0 affinity score (0 lowest to 4 highest)"}, {"measurement": "Affinity Score", "setting": "[22]", "result": "0 affinity score (0 lowest to 4 highest)"}, {"measurement": "Affinity Score", "setting": "[23]", "result": "2 affinity score (0 lowest to 4 highest)"}, {"measurement": "Affinity Score", "setting": "[24]", "result": "0 affinity score (0 lowest to 4 highest)"}, {"measurement": "Affinity Score", "setting": "[25]", "result": "0 affinity score (0 lowest to 4 highest)"}, {"measurement": "Affinity Score", "setting": "[26]", "result": "0 affinity score (0 lowest to 4 highest)"}, {"measurement": "Affinity Score", "setting": "[27]", "result": "0 affinity score (0 lowest to 4 highest)"}, {"measurement": "Affinity Score", "setting": "[28]", "result": "0 affinity score (0 lowest to 4 highest)"}]}
